The nature of series [1]: folding stability dG unfold from trypsin proteolysis; higher = more stable. The method, boiled down:
(§1)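 Designed mini-proteins with no cysteine and under 80 residues were kept only if AlphaFold2 dimer inter-PAE was above 15. In a PA-tagged cDNA display construct, they were digested with trypsin and chymotrypsin and then sequenced. K50 was inferred by Bayesian fitting of counts, and unfolding free energy was derived per protease or combined against a sequence-predicted unfolded-state K50 and a shared folded-state K50.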

Series [2] in a line: folding stability dG unfold from chymotrypsin proteolysis; higher = more stable. The method, boiled down:
as §1

Series [3] in a line: folding stability dG unfold (combined trypsin and chymotrypsin); higher = more stable. The method, boiled down:
as §1

± gives the half width of the 95% confidence interval.

Regarding “SAGGSAGGSAGGSKKTLTLPITITVTVTYTNEDGSTTETTYTYTLTINFEVSENDTGLLSAGGSAGGSAGGS [r10_1133_TrMRF]”, the figures for the “folding stability dG unfold” value in series [1], in series [2] and in series [3] were 2.23 ± 0.062 kcal/mol, 3.269 ± 0.013 kcal/mol and 2.92 ± 0.071 kcal/mol, respectively.
The matching figures for “SAGGSAGGSAGGSKLKIELNEDGTLRIVNEDTNEVYEIKLELPPPPPVETEVKYVSLEDLSAGGSAGGSAGG [r11_352_TrROS_Hall]”: 0.604 ± 0.18 kcal/mol, 0.842 ± 0.26 kcal/mol and 0.47 ± 0.31 kcal/mol.
Turning to “SAGGSAGGSAGGSKMYKIKIVNKKTKKVITVEVSEEDIEKALEAAKKAGVEKIEIEEVPSAGGSAGGSAGGS [r4_102_TrROS_Hall]”, the “folding stability dG unfold” value turned out to be 2.03 ± 0.17 kcal/mol in series [1], 1.7 ± 0.12 kcal/mol in series [2] and 1.82 ± 0.13 kcal/mol in series [3].
The matching figures for “SAGGSAGGSAGGSKYIVIRIPGSVDELIDYLRDSGFKIKIESVEYDPPNGEFYVVFKIKSAGGSAGGSAGGS [r4_315_TrROS]”: 2.53 ± 0.073 kcal/mol, 3.063 ± 0.025 kcal/mol and 2.87 ± 0.052 kcal/mol.
Regarding “SAGGSAGGSAGGSKYVVIRVKKSVDELKDALKKAGFKVKIVSVYYDKENKEIYVVVKIESAGGSAGGSAGGS [r4_315_TrROS_Hall]”, the “folding stability dG unfold” value is 3.7 ± 0.15 kcal/mol in series [1], 4.45 ± 0.14 kcal/mol in series [2] and 4.16 ± 0.17 kcal/mol in series [3].
On to “SAGGSAGGSAGGSLIVPAKDAVRFAEEWRRRFGGRFEIRGIPGIPFVPILVRPPDPAEFSAGGSAGGSAGGS [r4_419_TrMRF]”, for which the figures for the “folding stability dG unfold” value in series [1], in series [2] and in series [3] were -0.418 ± 0.38 kcal/mol, 0.703 ± 0.096 kcal/mol and 0.491 ± 0.097 kcal/mol, respectively.
For “SAGGSAGGSAGGSLPFLKAKFTFTVRATVTVTVTDDDGKTTTEEFELETTVTVTLEPKPSAGGSAGGSAGGS [r4_162_TrROS_Hall]” the same measures were 2.88 ± 0.15 kcal/mol, 3.45 ± 0.07 kcal/mol and 3.1 ± 0.2 kcal/mol.
“SAGGSAGGSAGGSLSSNGSSLPPVPPAPVTDEPVEFPTPVLVTVSYYPLTGERRVEVLLSAGGSAGGSAGGS [r4_305_JUSTAS]”: the entries for the “folding stability dG unfold” value in series [1], in series [2] and in series [3] were -0.291 ± 0.038 kcal/mol, 0.272 ± 0.07 kcal/mol and 0.178 ± 0.068 kcal/mol, respectively.
For the sequence “SAGGSAGGSAGGSMEFEVAEVFPDGWVVLRFPDGSRYRARLALDPETGEAKLLSLEPLPSAGGSAGGSAGGS [r4_247_TrMRF]”, the “folding stability dG unfold” value was found to be 3.27 ± 0.077 kcal/mol in series [1], 4.41 ± 0.071 kcal/mol in series [2] and 4.15 ± 0.2 kcal/mol in series [3].
On to “SAGGSAGGSAGGSMEITVETYPEVPLVRFTLPGGELVLLPVPPDVPEEEIRALAEALLASAGGSAGGSAGGS [r10_33_JUSTAS]”, for which the entries for the “folding stability dG unfold” value in series [1], in series [2] and in series [3] were 0.897 ± 0.025 kcal/mol, 0.833 ± 0.15 kcal/mol and 0.874 ± 0.12 kcal/mol, respectively.
The matching figures for “SAGGSAGGSAGGSMITLKIPPSKPEEAEKLAKSLGAELKSFDPNTGVVDINSPPGASLESAGGSAGGSAGGS [r4_3_JUSTAS]”: -1.25 ± 0.58 kcal/mol, -1.35 ± 0.74 kcal/mol and -0.929 ± 0.23 kcal/mol.
With “SAGGSAGGSAGGSMIVITTEGEEVRNSLPSSYNILETKEDPSVPSYTYDIKKPGTGKEESAGGSAGGSAGGS [r4_435_JUSTAS]”, the “folding stability dG unfold” value in series [1] is -1.55 ± 0.38 kcal/mol; in series [2] it was -0.979 ± 0.71 kcal/mol; in series [3], less than -1 kcal/mol.
As for “SAGGSAGGSAGGSMIVLNVPREVAEKIKEELIKKGIDPEKVKVIYIEVPLPEEPPESILSAGGSAGGSAGGS [r10_602_JUSTAS]”, the “folding stability dG unfold” value in series [1] amounted to 0.798 ± 0.067 kcal/mol; in series [2], 0.351 ± 0.099 kcal/mol; in series [3], 0.548 ± 0.16 kcal/mol.
With “SAGGSAGGSAGGSMKTVELSSEEEAKKIVEEAKKKGIPLTLVLTDPKTGNPKTFEFPLASAGGSAGGSAGGS [r4_188_JUSTAS]”, the “folding stability dG unfold” value in series [1] was -0.213 ± 0.22 kcal/mol; in series [2], -0.248 ± 0.41 kcal/mol; in series [3], 0.0568 ± 0.48 kcal/mol.
For “SAGGSAGGSAGGSMKVEKLPDGKLLVFDVDTKEWKEIDVEDAEVVLDEDNGRAIVRIKPSAGGSAGGSAGGS [r4_127_TrROS_Hall]”, the “folding stability dG unfold” value in series [1] is -0.173 ± 0.16 kcal/mol; in series [2], 1.76 ± 0.076 kcal/mol; in series [3] it was 0.902 ± 0.28 kcal/mol.
As to “SAGGSAGGSAGGSMKVILDKKNNELYILLKDENGKLLLAKITLLPNGEIKIEVYDLKDLSAGGSAGGSAGGS [r4_434_TrROS_Hall]”, the “folding stability dG unfold” value in series [1] worked out at 2.27 ± 0.066 kcal/mol; in series [2], 3.98 ± 0.1 kcal/mol; in series [3], 3.56 ± 0.13 kcal/mol.
“SAGGSAGGSAGGSMLVTEVSISPLPNGTVKVTTKLVLEPPDGVSVLEEESSVVSPEELSSAGGSAGGSAGGS [r4_389_JUSTAS]”: the entries for the “folding stability dG unfold” value in series [1], in series [2] and in series [3] were 0.11 ± 0.028 kcal/mol, 0.687 ± 0.041 kcal/mol and 0.484 ± 0.099 kcal/mol, respectively.
As for “SAGGSAGGSAGGSMPEGTVLSVDPSTGLKVVYFPGENKLVFEEISPSNELVKRSEFPLSSAGGSAGGSAGGS [r4_192_JUSTAS]”, the “folding stability dG unfold” value in series [1] was -0.116 ± 0.14 kcal/mol; in series [2], 0.436 ± 0.073 kcal/mol; in series [3], 0.15 ± 0.13 kcal/mol.
In the case of “SAGGSAGGSAGGSMPIPYKIDSIEYYPPYPYYTLNVTGPENKPYTIIMSPENLENATIESAGGSAGGSAGGS [r4_51_TrMRF]”, the “folding stability dG unfold” value in series [1] stood at 1.43 ± 0.12 kcal/mol; in series [2] it was 0.607 ± 0.19 kcal/mol; in series [3], 1.05 ± 0.23 kcal/mol.
With “SAGGSAGGSAGGSMSTINFPSKEEIEAYLKKLGLKNVKLPWYPNNNVMDTSDIEKDILESAGGSAGGSAGGS [r4_101_JUSTAS]”, the “folding stability dG unfold” value in series [1] amounted to 0.996 ± 0.022 kcal/mol; in series [2], 1.29 ± 0.03 kcal/mol; in series [3], 1.14 ± 0.058 kcal/mol.
Take “SAGGSAGGSAGGSMSVVVTVKDPRTGSTTTVTVSPAEVEEAIEEAKKKGYSVVTVSEGGSAGGSAGGSAGGS [r4_102_JUSTAS]”: the “folding stability dG unfold” value in series [1] came out at 1.84 ± 0.1 kcal/mol; in series [2] it was 1.43 ± 0.024 kcal/mol; in series [3], 1.68 ± 0.085 kcal/mol.
Regarding “SAGGSAGGSAGGSMTIIVKTEEEAKQLAERLKKELEELGLLENLKIEIKVIPEEDLPPESAGGSAGGSAGGS [r4_472_TrROS_Hall]”, the “folding stability dG unfold” value in series [1] was 1.29 ± 0.079 kcal/mol; in series [2], 2.33 ± 0.052 kcal/mol; in series [3], 2.09 ± 0.08 kcal/mol.
With “SAGGSAGGSAGGSMTLVIKNGIGYTVIKIKVEYDEETGEFSFELEIETKPVPPNYPVPASAGGSAGGSAGGS [r4_215_TrMRF]”, the entries for the “folding stability dG unfold” value in series [1], in series [2] and in series [3] were 3.02 ± 0.33 kcal/mol, 4.39 ± 0.33 kcal/mol and 3.99 ± 0.59 kcal/mol, respectively.
For “SAGGSAGGSAGGSMTTLNLTNMSPEEIEAALKANPGPVTVTTTLPGGEITTKTYTVPPGSAGGSAGGSAGGS [r10_514_JUSTAS]” the same measures were -0.0189 ± 0.047 kcal/mol, 0.644 ± 0.12 kcal/mol and 0.423 ± 0.083 kcal/mol.
For “SAGGSAGGSAGGSMVITMTEEEIKALLPPGAKVKVEVVEDEETKEKFVRVEVYPAKEEESAGGSAGGSAGGS [r4_119_TrROS_Hall]” the same measures were 0.0616 ± 0.059 kcal/mol, -0.429 ± 0.15 kcal/mol and 0.0851 ± 0.21 kcal/mol.
For “SAGGSAGGSAGGSMVKILIEKENELYEIYVPKDEIPLDELVKKAKELFPDIVKIEVFDDSAGGSAGGSAGGS [r4_235_TrMRF]” the same measures were 0.802 ± 0.039 kcal/mol, 1.1 ± 0.03 kcal/mol and 0.966 ± 0.096 kcal/mol.
On to “SAGGSAGGSAGGSMVKISKEPDRLTITITPGNTPLVFESTEPISEEEFVEKAKKENPLISAGGSAGGSAGGS [r4_191_JUSTAS]”, for which the “folding stability dG unfold” value came out at 0.215 ± 0.13 kcal/mol in series [1], 1.03 ± 0.037 kcal/mol in series [2] and 0.657 ± 0.17 kcal/mol in series [3].
Take “SAGGSAGGSAGGSMVSVEEFEVELPGGSKVKATVLIDPEGPLTVLLGDETFILPKEELGSAGGSAGGSAGGS [r10_649_JUSTAS]”: the entries for the “folding stability dG unfold” value in series [1], in series [2] and in series [3] were -0.22 ± 0.2 kcal/mol, -0.229 ± 0.19 kcal/mol and -0.118 ± 0.13 kcal/mol, respectively.
Regarding “SAGGSAGGSAGGSMVVEFSVGDTPIATIPFPGTEEEAKAAVEKLKEEYPSAEVKFTVHDESAGGSAGGSAGG [r7_81_JUSTAS]”, the “folding stability dG unfold” value in series [1] worked out at 0.471 ± 0.031 kcal/mol; in series [2], 0.169 ± 0.075 kcal/mol; in series [3] it was 0.342 ± 0.14 kcal/mol.
Regarding “SAGGSAGGSAGGSMYTAEPSVVLLPDGTLRTVTRYTFPDGSVTSETATSPLSPDDPALLSAGGSAGGSAGGS [r4_144_JUSTAS]”, the “folding stability dG unfold” value is -0.0533 ± 0.1 kcal/mol in series [1], 0.949 ± 0.099 kcal/mol in series [2] and 0.637 ± 0.087 kcal/mol in series [3].
As for “SAGGSAGGSAGGSNIEIEYNPNMMTIRIEPGDKPIEIQIKSPMTMEEFIKTALDKFPGISAGGSAGGSAGGS [r4_191_TrROS]”, the “folding stability dG unfold” value in series [1] stood at 0.394 ± 0.061 kcal/mol; in series [2], 0.224 ± 0.18 kcal/mol; in series [3], 0.415 ± 0.28 kcal/mol.
With “SAGGSAGGSAGGSNMYIEIDEIERNPDDWYQITVKIYNPDNGEKEKITFYMPPGQEIKISAGGSAGGSAGGS [r4_133_TrROS]”, the “folding stability dG unfold” value in series [1] worked out at 0.896 ± 0.076 kcal/mol; in series [2] it was 1.51 ± 0.12 kcal/mol; in series [3], 1.25 ± 0.2 kcal/mol.
Regarding “SAGGSAGGSAGGSPAVRIPLEVLKELIPPDLVVEVNPVPVPEEGGVLVPVRVVSPEEAASAGGSAGGSAGGS [r4_119_TrMRF]”, the results for the “folding stability dG unfold” value in series [1], in series [2] and in series [3] were 0.0931 ± 0.052 kcal/mol, 1.13 ± 0.042 kcal/mol and 0.728 ± 0.18 kcal/mol, respectively.
“SAGGSAGGSAGGSPFTIKIKMEQPNGRKRTYTIEGEGDLDQIAKELEKHYPGRIKDIEISAGGSAGGSAGGS [r4_412_TrROS]”: the “folding stability dG unfold” value in series [1] is -0.101 ± 0.31 kcal/mol; in series [2] it was 0.783 ± 0.23 kcal/mol; in series [3], 0.548 ± 0.27 kcal/mol.
The matching figures for “SAGGSAGGSAGGSPGVGERVVPVEDGVVRVRVFPDFAVVEYENGGVETMTLDDLVRALSSAGGSAGGSAGGS [r4_242_TrMRF]”: 0.497 ± 0.064 kcal/mol, 0.65 ± 0.053 kcal/mol and 0.601 ± 0.14 kcal/mol.
For “SAGGSAGGSAGGSPLKIKIVEVKEHKNPDGKPRRRIMMRFPNGRTLHIDMNGNLEIMPASAGGSAGGSAGGS [r4_111_TrROS]” the same measures were 0.0795 ± 0.19 kcal/mol, 0.176 ± 0.32 kcal/mol and 0.188 ± 0.22 kcal/mol.

The values above are taken from the supplement of paper PMC12764529.
